Experimental findings from PMC8642242 (Nature Immunology, 2021) are described below.

Changes are numbered by the printed parent chain.

The assay deals with SARS-CoV-2 S protein, full length (IL1/2020), on 293F-Spike-S2A cells (SARS-CoV-2, USA/IL1/2020 (S identical …, UniProt P0DTC2)). The experiment in a line: flow cytometry on cells. As to conditions: one partner purified.

B1: WRAIR-2123 LALA-PG (human IgG1 with the triple Fc mutation LALA-PG) (antibody, V domains shown)
VH: EVQLVESGGGVVQPGRSLRLSCAASGFTFSSYAMHWVRQAPGKGLEWVAVLSYDGSNKYNADSVKGRFTISRDNSKNTLYLQMNSLRVEDTAMYYCARDGVSVTMVRGVIGPLCDYWGQGTLVTVSS
VL: not shown
On to B1, for which the binding result is “binds”.

B2: WRAIR-2004 LALA-PG (human IgG1 with the triple Fc mutation LALA-PG) (antibody, V domains shown)
VH: QVQLVQSGAEVKKPGASVKVSCKASGYTFTGYYMHWVRQAPGQGLEWMGRINPSSGGTNYAQKFQGRVTMTRDTSISTAYMELSSLRSDDTAVYYCATDGDDGENWFDPWGQGTLVIVSS
VL: DIQMTQSPSSLSASVGDRVTITCRASQGISSWLAWYQQKPEKAPKSLIYAASSLQSGVPSRFSGSGSGTDFTLTISSLQPEDFATYYCQQYNSYPYTFGQGTKLEIK
B2: the binding result is listed as “binds”.

B3: WRAIR-2039 LALA-PG (human IgG1 with the triple Fc mutation LALA-PG) (antibody, V domains shown)
VH: QVQLVQSGAEVKKPGASVKVSCKVSGYMLIELSMHWVRQAPGKGLEWMGGFDPEDAETIYAQEFQGRVTMTEDTSTDTAYMELSSLRSEDTAVYYCTTGPAVTNRPADYWGPGTLVTVSS
VL: QSVLTQPPSVSGAPGQRVTISCTGSSSNIGASYDVHWYQQLPGTAPKLLIYANSNRPSGVPDRFSGSKSGTSASLAITGLQAEDEADYYCQSYDSSLSYSVVFGGGTKLTVL
On to B3, for which the binding result is “binds”.

B4: WRAIR-2173 LALA-PG (human IgG1 with the triple Fc mutation LALA-PG) (antibody, V domains shown)
VH: QVQLQESGPGLVKPSETLSLTCSVSGDSISSSDYSWGWIRQPPGKGLEWIGTIYYIKNTYYNPSLRSRVTLSVDTSKNLFSLKLSSVTAADTAVYYCARERPPFDVVVVPAARPYNWFDPWGLGTLVIVSS
VL: B3 VL with T5M, S32G, A52G, S54N, E83D, Y99G, V101K
For B4, the binding result was “binds”.

B5: WRAIR-2025 LALA-PG (human IgG1 with the triple Fc mutation LALA-PG) (antibody, V domains shown)
VH: QVHLVQSGAEVKKPGASVKVSCKVSGYTLVELSVHWVRQAPAKGLEWIGGFDPEDGETIYAQKFQGRVTMTEDTSTDTAYMELTNLRSEDTAVYYCVTSQPFVSPNWFDPWGQGTLVTVSS
VL: QSALTQPASVSGSPGQSITISCTGTSRDVGAYNYVSWYQQHPGKAPKLMIYEVTTRPSGVSNRFSGSKSGNTASLTISGLQAEDEADYYCSSYTGSRTLVFGTGTKVTVL
On to B5, for which the binding result was “binds”.
